According to patent US20220010021A1 (Sanofi, published 2022):
Positions count from the first letter of the chain named.

T1: human beta-Klotho (KLB) (human, UniProt Q86Z14 53-997)
T1 construct: bought protein; also called human KLB
T1 sequence (looked up): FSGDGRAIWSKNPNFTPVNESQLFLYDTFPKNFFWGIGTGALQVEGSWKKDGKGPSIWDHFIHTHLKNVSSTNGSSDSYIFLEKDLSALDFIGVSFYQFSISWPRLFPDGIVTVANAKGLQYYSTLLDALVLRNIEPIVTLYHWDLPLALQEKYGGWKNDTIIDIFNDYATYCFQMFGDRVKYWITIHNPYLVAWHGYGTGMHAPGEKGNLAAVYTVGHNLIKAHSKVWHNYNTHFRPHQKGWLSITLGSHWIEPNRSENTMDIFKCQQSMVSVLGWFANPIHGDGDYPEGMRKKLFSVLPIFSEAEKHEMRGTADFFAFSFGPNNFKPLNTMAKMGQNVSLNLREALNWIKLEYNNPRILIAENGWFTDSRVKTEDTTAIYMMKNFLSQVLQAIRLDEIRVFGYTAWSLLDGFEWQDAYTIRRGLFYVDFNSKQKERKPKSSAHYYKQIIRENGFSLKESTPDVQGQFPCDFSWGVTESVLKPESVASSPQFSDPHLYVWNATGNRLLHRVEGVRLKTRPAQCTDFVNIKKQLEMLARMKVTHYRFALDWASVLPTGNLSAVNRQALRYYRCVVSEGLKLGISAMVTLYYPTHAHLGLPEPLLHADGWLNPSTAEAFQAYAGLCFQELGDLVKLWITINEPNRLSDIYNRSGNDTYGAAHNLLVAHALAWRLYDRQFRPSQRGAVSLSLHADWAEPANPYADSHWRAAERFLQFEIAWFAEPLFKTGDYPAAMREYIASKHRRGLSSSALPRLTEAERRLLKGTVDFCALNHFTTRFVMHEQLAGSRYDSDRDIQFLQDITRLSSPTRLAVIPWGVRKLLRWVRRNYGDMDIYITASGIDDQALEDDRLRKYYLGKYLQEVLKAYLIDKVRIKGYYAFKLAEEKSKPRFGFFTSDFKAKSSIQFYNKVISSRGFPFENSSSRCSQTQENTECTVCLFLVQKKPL

B1: Ab0236 (antibody, IgG4, V domains shown)
VH: not shown
VL: SYVLTQPPSVSVAPGQTARITCGGNNIGSESVHWYQQKPGQAPVLVVYDDSDRPSGIPERFSGSNSGNTATLTISRVEAGDEADYYCQVWDGASDHVVFGGGTKLTVLG
notes: IgG4 PE
B2: Ab0353 (antibody, IgG4, V domains shown)
VH: QVTLKESGPVLVKPTETLTLTCTVSGFSLNNARVGVSWIRQPPGKALEWLAHIFSNDEKSYSTSLKSRLTISKDTSKSQVVLTMTNMDPVDTATYYCARSVVTGGYYYEGMDVWGQGTTVTVSS
VL: B1 VL with N25S, D49E, D50E, D91E
notes: IgG4 PE
B3: Ab0314 (antibody, IgG4, V domains shown)
VH: B2 VH
VL: B1 VL with N25S, D91T, A93E
notes: IgG4 PE
B4: Ab0309 (antibody, IgG4, V domains shown)
VH: B2 VH
VL: B1 VL with D50E, A93E
notes: IgG4 PE
B5: Ab0352 (antibody, IgG4, V domains shown)
VH: B2 VH
VL: B1 VL with N25S, D49E, D50E, D91E, A93S
notes: IgG4 PE
B6: Ab0310 (antibody, IgG4, V domains shown)
VH: B2 VH
VL: B1 VL with N25S, D50E, A93E
notes: IgG4 PE
B7: Ab0417 (antibody, IgG4, V domains shown)
VH: B2 VH
VL: B1 VL with N25S, D49Y, D50E, D91H, A93E
notes: IgG4 PE
B8: Ab0307 (antibody, IgG4, V domains shown)
VH: B2 VH
VL: B1 VL with D49Y, A93E
notes: IgG4 PE
B9: Ab0297 (antibody, IgG4, V domains shown)
VH: B2 VH
VL: B1 VL with D49Y, D50E, A93N
notes: IgG4 PE
B10: Ab0344 (antibody, IgG4, V domains shown)
VH: B2 VH
VL: B1 VL with N25S, D49A, D50A, D91E, A93S
notes: IgG4 PE
B11: Ab0360 (antibody, IgG4, V domains shown)
VH: B2 VH
VL: B1 VL with N25S, D49E, D50H, D91E, A93S
notes: IgG4 PE
B12: Ab0311 (antibody, IgG4, V domains shown)
VH: B2 VH
VL: B1 VL with D49Y, D50E, A93E
notes: IgG4 PE
B13: Ab0295 (antibody, IgG4, V domains shown)
VH: B2 VH
VL: B1 VL with N25S, D49Y, A93N
notes: IgG4 PE
B14: Ab0338 (antibody, IgG4, V domains shown)
VH: B2 VH
VL: B1 VL with N25S, D49S, D50S, D91A, A93S
notes: IgG4 PE
B15: Ab0306 (antibody, IgG4, V domains shown)
VH: B2 VH
VL: B1 VL with N25S, A93E
notes: IgG4 PE
B16: Ab0332 (antibody, IgG4, V domains shown)
VH: B2 VH
VL: B1 VL with N25S, D49S, D50E, D91E
notes: IgG4 PE
B17: Ab0308 (antibody, IgG4, V domains shown)
VH: B2 VH
VL: B1 VL with N25S, D49Y, A93E
notes: IgG4 PE
B18: Ab0345 (antibody, IgG4, V domains shown)
VH: B2 VH
VL: B1 VL with N25S, D49A, D50A, D91E
notes: IgG4 PE
B19: Ab0298 (antibody, IgG4, V domains shown)
VH: B2 VH
VL: B1 VL with N25S, D49Y, D50E, A93N
notes: IgG4 PE
B20: Ab0361 (antibody, IgG4, V domains shown)
VH: B2 VH
VL: B1 VL with N25S, D49E, D50S, D91E, A93S
notes: IgG4 PE
B21: Ab0333 (antibody, IgG4, V domains shown)
VH: B2 VH
VL: B1 VL with N25S, D49S, D50Y, D91A, A93S
notes: IgG4 PE
B22: Ab0357 (antibody, IgG4, V domains shown)
VH: B2 VH
VL: B1 VL with N25S, D49E, D50A, D91E, A93S
notes: IgG4 PE
B23: Ab0416 (antibody, IgG4, V domains shown)
VH: B2 VH
VL: B1 VL with N25S, D49Y, D50E, D91E, A93E
notes: IgG4 PE
B24: Ab0312 (antibody, IgG4, V domains shown)
VH: B2 VH
VL: B1 VL with N25S, D49Y, D50E, A93E
notes: IgG4 PE
B25: Ab0296 (antibody, IgG4, V domains shown)
VH: B2 VH
VL: B1 VL with N25S, D50E, A93N
notes: IgG4 PE
B26: Ab0326 (antibody, IgG4, V domains shown)
VH: B2 VH
VL: B1 VL with N25S, D49Y, D50E, D91E, A93S
notes: IgG4 PE
B27: Ab0364 (antibody, IgG4, V domains shown)
VH: B2 VH
VL: B1 VL with N25A, D49E, D50E, D91E, A93S
notes: IgG4 PE
B28: Ab0355 (antibody, IgG4, V domains shown)
VH: B2 VH
VL: B1 VL with N25S, D49E, D50Y, D91E, A93S
notes: IgG4 PE
B29: Ab0337 (antibody, IgG4, V domains shown)
VH: B2 VH
VL: B1 VL with N25S, D49S, D50H, D91E, A93E
notes: IgG4 PE
B30: Ab0358 (antibody, IgG4, V domains shown)
VH: B2 VH
VL: B1 VL with N25S, D49E, D50A, D91H, A93S
notes: IgG4 PE
B31: Ab0340 (antibody, IgG4, V domains shown)
VH: B2 VH
VL: B1 VL with N25S, D49A, D50E, D91E, A93S
notes: IgG4 PE
B32: Ab0327 (antibody, IgG4, V domains shown)
VH: B2 VH
VL: B1 VL with N25S, D49Y, D50Y, D91E, A93E
notes: IgG4 PE
B33: Ab0354 (antibody, IgG4, V domains shown)
VH: B2 VH
VL: B1 VL with N25S, D49E, D50E, D91H, A93S
notes: IgG4 PE
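For koff in this document: Anti-KLB antibodies captured on anti-human Fc CM5 chip, KLB injected as analyte, 180 s association and 1800 s dissociation, fitted to 1:1 binding model.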

What follows are binders tested against T1, human beta-Klotho (KLB) (assay: SPR).
In the case of B1, the koff is reported as 0.000151 s⁻¹.
B2 gave a koff of 0.00038 s⁻¹.
Binder B3 has a koff of 0.000402 s⁻¹.
Work on B4 yielded a koff of 0.00103 s⁻¹.
Work on B5 yielded a koff of 0.000419 s⁻¹.
With B6 the koff was 0.00116 s⁻¹.
B7 showed a koff of 0.000303 s⁻¹.
Work on B8 yielded a koff of 0.00118 s⁻¹.
B9 gave a koff of 0.00156 s⁻¹.
For B10, the koff was 0.00168 s⁻¹.
Binder B11 has a koff of 0.00192 s⁻¹.
With B12 the koff was 0.0013 s⁻¹.
For B13, the koff was 0.00157 s⁻¹.
Work on B14 yielded a koff of 0.000429 s⁻¹.
B15 was tested, and the koff was 0.000288 s⁻¹.
Work on B16 yielded a koff of 0.00143 s⁻¹.
B17 gave a koff of 0.0013 s⁻¹.
B18 gave a koff of 0.00188 s⁻¹.
Binder B19 has a koff of 0.0016 s⁻¹.
B20 gave a koff of 0.00163 s⁻¹.
B21 gave a koff of 0.000251 s⁻¹.
B22 was tested, and the koff was 0.00185 s⁻¹.
Binder B23 has a koff of 0.00107 s⁻¹.
B24 showed a koff of 0.00053 s⁻¹.
B25 was tested, and the koff was 0.00137 s⁻¹.
B26 showed a koff of 0.00175 s⁻¹.
Binder B27 has a koff of 0.00169 s⁻¹.
In the case of B28, the koff is reported as 0.00195 s⁻¹.
With B29 the koff was 0.00053 s⁻¹.
For B30, the koff was 0.000454 s⁻¹.
B31 gave a koff of 0.00176 s⁻¹.
B32 showed a koff of 0.000346 s⁻¹.
With B33 the koff was 0.00158 s⁻¹.

These binders were tested against human FGFR1c + KLB receptor complex on HEK293 iLite FGF21 reporter cells (human, UniProt P11362 22-822; Q86Z14 1-1044) (assay: cell-based or functional assay).
Sequence of human FGFR1c + KLB receptor complex on HEK293 iLite FGF21 reporter cells (P11362 22-822, chain 1 of 2): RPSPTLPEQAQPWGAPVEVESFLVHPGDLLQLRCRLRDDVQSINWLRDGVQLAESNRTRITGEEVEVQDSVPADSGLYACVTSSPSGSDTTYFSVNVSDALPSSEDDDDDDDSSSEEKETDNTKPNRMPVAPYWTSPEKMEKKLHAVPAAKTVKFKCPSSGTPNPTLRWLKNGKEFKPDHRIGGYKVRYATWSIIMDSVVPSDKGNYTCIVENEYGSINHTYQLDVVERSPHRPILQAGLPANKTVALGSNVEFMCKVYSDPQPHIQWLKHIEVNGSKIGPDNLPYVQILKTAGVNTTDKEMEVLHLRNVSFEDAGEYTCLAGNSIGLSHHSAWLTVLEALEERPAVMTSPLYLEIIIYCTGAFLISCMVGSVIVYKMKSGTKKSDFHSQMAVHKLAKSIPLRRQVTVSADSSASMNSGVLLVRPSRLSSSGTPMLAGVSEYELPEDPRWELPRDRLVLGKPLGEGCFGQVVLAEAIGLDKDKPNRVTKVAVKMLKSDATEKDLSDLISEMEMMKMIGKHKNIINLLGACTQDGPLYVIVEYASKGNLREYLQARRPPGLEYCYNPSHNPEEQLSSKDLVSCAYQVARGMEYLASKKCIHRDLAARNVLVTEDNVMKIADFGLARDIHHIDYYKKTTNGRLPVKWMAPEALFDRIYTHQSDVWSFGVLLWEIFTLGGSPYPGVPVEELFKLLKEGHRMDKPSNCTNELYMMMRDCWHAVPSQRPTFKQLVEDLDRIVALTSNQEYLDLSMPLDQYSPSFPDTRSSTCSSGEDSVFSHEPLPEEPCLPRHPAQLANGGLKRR
Sequence of human FGFR1c + KLB receptor complex on HEK293 iLite FGF21 reporter cells (Q86Z14 whole entry, chain 2 of 2): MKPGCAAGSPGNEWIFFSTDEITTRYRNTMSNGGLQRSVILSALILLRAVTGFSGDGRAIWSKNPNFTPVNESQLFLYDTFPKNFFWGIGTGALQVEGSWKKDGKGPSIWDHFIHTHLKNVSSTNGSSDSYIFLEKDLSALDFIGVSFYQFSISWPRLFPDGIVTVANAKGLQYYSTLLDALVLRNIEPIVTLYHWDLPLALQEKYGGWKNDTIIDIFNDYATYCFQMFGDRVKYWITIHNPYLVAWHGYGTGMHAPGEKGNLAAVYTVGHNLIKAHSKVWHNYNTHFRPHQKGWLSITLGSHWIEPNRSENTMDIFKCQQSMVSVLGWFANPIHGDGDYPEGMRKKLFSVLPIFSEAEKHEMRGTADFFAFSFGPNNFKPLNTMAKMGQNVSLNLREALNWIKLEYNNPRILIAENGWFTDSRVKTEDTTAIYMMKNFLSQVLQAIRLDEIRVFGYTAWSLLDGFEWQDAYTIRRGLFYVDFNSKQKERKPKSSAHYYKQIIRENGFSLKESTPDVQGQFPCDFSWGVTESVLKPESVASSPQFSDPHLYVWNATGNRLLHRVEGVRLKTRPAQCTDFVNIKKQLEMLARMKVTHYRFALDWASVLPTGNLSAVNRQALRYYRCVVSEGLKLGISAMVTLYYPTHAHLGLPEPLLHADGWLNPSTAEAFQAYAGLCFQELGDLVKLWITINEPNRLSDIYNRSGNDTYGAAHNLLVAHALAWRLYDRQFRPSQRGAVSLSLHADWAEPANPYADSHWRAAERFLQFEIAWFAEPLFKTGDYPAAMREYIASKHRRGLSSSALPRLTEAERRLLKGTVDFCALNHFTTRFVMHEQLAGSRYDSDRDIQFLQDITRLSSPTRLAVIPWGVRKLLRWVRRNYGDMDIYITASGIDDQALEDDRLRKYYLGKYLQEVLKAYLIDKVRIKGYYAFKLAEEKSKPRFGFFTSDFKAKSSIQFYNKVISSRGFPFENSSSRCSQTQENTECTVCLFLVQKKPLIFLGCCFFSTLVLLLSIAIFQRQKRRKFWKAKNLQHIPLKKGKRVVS
In the case of B1, the EC50 is reported as 0.05 nM and the Emax is reported as 2190%.
B2 was tested, and the EC50 was 0.08 nM and the Emax was 895%.
Binder B3 has an EC50 of 0.05 nM and an Emax of 1110%.
B4 gave an EC50 of 0.04 nM and an Emax of 1210%.
In the case of B5, the EC50 is reported as 0.07 nM and the Emax is reported as 1010%.
B6 showed an EC50 of 0.05 nM and an Emax of 1080%.
B7 showed an EC50 of 0.06 nM and an Emax of 1110%.
Work on B8 yielded an EC50 of 0.06 nM and an Emax of 1150%.
B9 showed an EC50 of 0.07 nM and an Emax of 1210%.
B10 gave an EC50 of 0.07 nM and an Emax of 958%.
Binder B11 has an EC50 of 0.08 nM and an Emax of 845%.
B12 gave an EC50 of 0.05 nM and an Emax of 1080%.
Work on B13 yielded an EC50 of 0.07 nM and an Emax of 1310%.
With B14 the EC50 was 0.06 nM and the Emax was 971%.
Binder B15 has an EC50 of 0.05 nM and an Emax of 1330%.
With B16 the EC50 was 0.05 nM and the Emax was 995%.
In the case of B17, the EC50 is reported as 0.06 nM and the Emax is reported as 1070%.
With B18 the EC50 was 0.07 nM and the Emax was 908%.
With B19 the EC50 was 0.08 nM and the Emax was 1180%.
For B20, the EC50 was 0.07 nM and the Emax was 986%.
B21 showed an EC50 of 0.2 nM and an Emax of 769%.
B22 showed an EC50 of 0.08 nM and an Emax of 893%.
With B23 the EC50 was 0.05 nM and the Emax was 863%.
B24 showed an EC50 of 0.07 nM and an Emax of 1010%.
Binder B25 has an EC50 of 0.06 nM and an Emax of 1290%.
Work on B26 yielded an EC50 of 0.07 nM and an Emax of 1010%.
Binder B27 has an EC50 of 0.11 nM and an Emax of 991%.
B28 gave an EC50 of 0.07 nM and an Emax of 829%.
For B29, the EC50 was 0.06 nM and the Emax was 1030%.
For B30, the EC50 was 0.07 nM and the Emax was 858%.
Binder B31 has an EC50 of 0.05 nM and an Emax of 912%.
B32 was tested, and the EC50 was 0.05 nM and the Emax was 995%.
Binder B33 has an EC50 of 0.07 nM and an Emax of 878%.
